Laboratory results: publication PMC6637204, “Inactivating mutations and X-ray crystal structure of the tumor suppressor OPCML reveal cancer-associated functions” (Nature Communications, 2019)

Columns and labels:
[1] = target: the molecule itself; experiment: SAXS; WT OPCML in 50 mM HEPES pH 7.5, 200 mM sodium chloride, 2% glycerol, 0.02% sodium azide; three concentrations merged; fit to dimer and monomer models
[2] = target: the molecule itself; experiment: SEC-MALLS; samples at 1 µg/µL, 1 mL/min in PBS pH 7.4, room temperature
[3] = target: the molecule itself; experiment: SEC; gel filtration; dilutions equilibrated 24 h, 50 µL on Superdex 200 10/30 GL at 0.5 mL/min; peak elution volume against concentration fit to a monomer-dimer equilibrium (dimer to monomers)
[4] = target: the molecule itself; experiment: SDS-PAGE without heat denaturation, western blot; extracts of transduced cells run without prior heat denaturation, anti-OPCML blot
[5] = SYPRO Orange thermal shift assay; settings: glycan lost; control: wild type
gel filtration = settings: glycan lost; control: wild type
[6] = recombinant secretion from insect cells; settings: glycan lost; control: wild type
[7] = MTS viability, R428 IC50, SKOV3; settings: glycan lost; control: wild type
[8] = Caspase-Glo 3/7 assay, SKOV3; settings: glycan lost; control: wild type
[9] = western blot, transduced SKOV3, PEA1, PEO1; settings: glycan lost; control: wild type
[10] = immunofluorescence confocal microscopy; settings: glycan lost; control: wild type

B1: soluble recombinant wild-type OPCML (residues 36-316, D1-D3) (domain or fragment, human, UniProt Q14982 36-316, looked up)
chain: ATFPKAMDNVTVRQGESATLRCTIDDRVTRVAWLNRSTILYAGNDKWSIDPRVIILVNTPTQYSIMIQNVDVYDEGPYTCSVQTDNHPKTSRVHLIVQVPPQIMNISSDITVNEGSSVTLLCLAIGRPEPTVTWRHLSVKEGQGFVSEDEYLEISDIKRDQSGEYECSALNDVAAPDVRKVKITVNYPPYISKAKNTGVSVGQKGILSCEASAVPMAEFQWFKEETRLATGLDGMRIENKGRMSTLTFFNVSEKDYGNYTCVATNKLGNTNASITLYGPGA
modifications: N-linked glycans modelled at asparagines 70, 293 and 306
notes: OPCML, human, UniProt Q14982, residues 36-316 (D1-D3); also called WT OPCML; rOPCML; source: Hi5 insect cells, baculovirus, secreted; purified (protein A, thrombin digestion, negative protein A, HiTrap Q, SEC); not shown: Fc (human IgG1, UniProt P01857 residues 118-330, joined by ALVPRGS), C-terminal, cleaved
With B1 the “stoichiometry N” value [1] was 2.

B2: soluble recombinant OPCML P95R (residues 36-316) (domain or fragment, human, UniProt Q14982 36-316, looked up)
chain: ATFPKAMDNVTVRQGESATLRCTIDDRVTRVAWLNRSTILYAGNDKWSIDPRVIILVNTRTQYSIMIQNVDVYDEGPYTCSVQTDNHPKTSRVHLIVQVPPQIMNISSDITVNEGSSVTLLCLAIGRPEPTVTWRHLSVKEGQGFVSEDEYLEISDIKRDQSGEYECSALNDVAAPDVRKVKITVNYPPYISKAKNTGVSVGQKGILSCEASAVPMAEFQWFKEETRLATGLDGMRIENKGRMSTLTFFNVSEKDYGNYTCVATNKLGNTNASITLYGPGA
notes: OPCML, human, UniProt Q14982, residues 36-316 (D1-D3), clinical somatic mutation P95R; Same construct as m1 with P95R; PDB 5UV6 is the wild-type parent; ALVPR probably left at the C-terminus after thrombin (surmised); also called rP95R; source: Hi5 insect cells, baculovirus, secreted; purified (protein A, thrombin digestion, negative protein A, HiTrap Q, SEC); not shown: Fc (human IgG1, UniProt …)
For B2, the “stoichiometry N” value [2] was 2.

B3: soluble recombinant OPCML R65L (residues 36-316) (domain or fragment, human, UniProt Q14982 36-316, looked up)
chain: ATFPKAMDNVTVRQGESATLRCTIDDRVTLVAWLNRSTILYAGNDKWSIDPRVIILVNTPTQYSIMIQNVDVYDEGPYTCSVQTDNHPKTSRVHLIVQVPPQIMNISSDITVNEGSSVTLLCLAIGRPEPTVTWRHLSVKEGQGFVSEDEYLEISDIKRDQSGEYECSALNDVAAPDVRKVKITVNYPPYISKAKNTGVSVGQKGILSCEASAVPMAEFQWFKEETRLATGLDGMRIENKGRMSTLTFFNVSEKDYGNYTCVATNKLGNTNASITLYGPGA
notes: OPCML, human, UniProt Q14982, residues 36-316 (D1-D3), clinical somatic mutation R65L; Same construct as m1 with R65L; PDB 5UV6 is the wild-type parent; ALVPR probably left at the C-terminus after thrombin (surmised); also called rR65L; source: Hi5 insect cells, baculovirus, secreted; purified (protein A, thrombin digestion, negative protein A, HiTrap Q, SEC); not shown: Fc (human IgG1, UniProt …)
For B3, the “fold weaker Kd than WT OPCML” value [3] was no less than 250 fold.

B4: wild-type OPCML expressed in transduced cancer cells (natural protein, human, UniProt Q14982 28-322, looked up)
chain: GVPVRSGDATFPKAMDNVTVRQGESATLRCTIDDRVTRVAWLNRSTILYAGNDKWSIDPRVIILVNTPTQYSIMIQNVDVYDEGPYTCSVQTDNHPKTSRVHLIVQVPPQIMNISSDITVNEGSSVTLLCLAIGRPEPTVTWRHLSVKEGQGFVSEDEYLEISDIKRDQSGEYECSALNDVAAPDVRKVKITVNYPPYISKAKNTGVSVGQKGILSCEASAVPMAEFQWFKEETRLATGLDGMRIENKGRMSTLTFFNVSEKDYGNYTCVATNKLGNTNASITLYGPGAVIDGVN
notes: OPCML, human, WT cDNA from pENTR4 shuttled to pLenti CMV Puro DEST; GPI-anchored, membrane-localized; also called WT OPCML; WT; source: SKOV3, PEA1, PEO1 and HCT116 cells, stably transduced (lentivirus, pLenti CMV Puro DEST); on cells or in lysate
In the case of B4, the “stoichiometry N” value [4] is reported as 2.

B5: OPCML: N70H (protein)
parent chain: MGVCGYLFLPWKCLVVVSLRLLFLVPTGVPVRSGDATFPKAMDNVTVRQGESATLRCTIDDRVTRVAWLNRSTILYAGNDKWSIDPRVIILVNTPTQYSIMIQNVDVYDEGPYTCSVQTDNHPKTSRVHLIVQVPPQIMNISSDITVNEGSSVTLLCLAIGRPEPTVTWRHLSVKEGQGFVSEDEYLEISDIKRDQSGEYECSALNDVAAPDVRKVKITVNYPPYISKAKNTGVSVGQKGILSCEASAVPMAEFQWFKEETRLATGLDGMRIENKGRMSTLTFFNVSEKDYGNYTCVATNKLGNTNASITLYGPGAVIDGVNSASRALACLWLSGTLLAHFFIKF
With B5 the “stability_or_folding, Tm” value [5] was “decreases”, the “other: aggregation” value (gel filtration) was “increases” and the expression_or_secretion [6] was “decreases”. For the same protein, the “other: sensitisation to AXL inhibitor” value [7] was “abolishes”, the “other: R428-induced apoptosis” value [8] was “abolishes” and the expression_or_secretion [9] was “no change”. For the same protein, the localisation_or_trafficking [10] was “no change”.
